Patent US20260242478A1 (published 2026)
Values joined by “and” are separate entries in the source; they are usually repeats but may differ in a detail not shown here. Identical values can stand only once. Where no end group is shown, it is not given here.

B1: Peptide-87 (peptide)
peptide: YCAGHAWQYINKCL
modifications: not fully specified; cysteine pairing not given here; also: biotinylated, site not given here
B2: Peptide-110 (peptide)
peptide: YCAGHAAQYINKCL
notes: Alanine scan variant of Peptide-87 (W7A)
B3: Peptide-111 (peptide)
peptide: YCAGHAWAYINKCL
notes: Alanine scan variant of Peptide-87 (Q8A)
B4: Peptide-113 (peptide)
peptide: YCAGHAWQYANKCL
notes: Alanine scan variant of Peptide-87 (I10A)
B5: Peptide-114 (peptide)
peptide: YCAGHAWQYIAKCL
notes: Alanine scan variant of Peptide-87 (N11A)
B6: Peptide-116 (peptide)
peptide: YCAGHAWQYINKCA
notes: Alanine scan variant of Peptide-87 (L14A)

Molecular target: T1, PSMA Fab (Fab biotinylated for capture on neutravidin plates (site not given))
T1 construct: also called Anti-PSMA Fab; 006 PSMA Fab
Assay: phage ELISA: biotinylated PSMA Fab on neutravidin plate, clonal phage supernatant, anti-M13 HRP; wells pre-incubated with PSMA antigen as competitor

In order of falling “phage binding ELISA signal” value:
1. MRSVCVPSWMCSGF (peptide, not shown: large carriers, Clonal phage of the Peptide-180 library) [Phage-4012]  0.176
2. FEVRCVPTWMCAGQ (peptide, not shown: large carriers, Clonal phage of the Peptide-180 library) [Phage-4010]  0.069
3. GWRQCEPVWMCSGF (peptide, not shown: large carriers, Clonal phage of the Peptide-180 library) [Phage-4011]  0.0672
4. APRMCSPPWMCYEL (peptide, not shown: large carriers, Clonal phage of the Peptide-180 library) [Phage-4013]  0.0661

Molecular target: anti-CD28 Fab
Assay: competition ELISA: peptide titrated (0-100 µM) with 1 nM anti-CD28 Fab, binding to plate-bound CD28

In order of falling IC50:
1. B4  102 µM
2. B6  98.6 µM
3. B1  12.6 µM
4. B3  12.3 µM
5. B5  5.49 µM
6. B2  3.16 µM

Molecular target: T2, Anti-CD28 Fab (SEQ ID NOs: 696, 697)
T2 construct: In the phage ELISA the Fab was biotinylated and captured on neutravidin coated plates
Assay: phage binding ELISA; biotinylated anti-CD28 Fab captured on neutravidin plate, clonal phage supernatant, anti-M13 HRP detection

In order of falling “Phage binding ELISA, Anti-CD28 Fab signal” value:
1. YCAGHLDEYMEKCL [Phage-1332 (Peptide-87 library sequence, SEQ ID NO: 1648)]  0.4
2. YCDGHTWMYKQKCL [Phage-1333 (Peptide-87 library sequence, SEQ ID NO: 1649)]  0.4

Molecular target: anti-CD28 Fab
Assay: competition ELISA: peptide titrated (0-100 µM) with 1 nM anti-CD28 Fab, binding to plate-bound CD28
Remark: another data set of the same source

In order of rising IC50:
1. SCAAGAAYAWPYCL [Peptide-101]  7.42 µM
2. SCAAGASYAWPYCL [Peptide-92]  7.89 µM
3. SCAAGASYAWPACL [Peptide-105]  13 µM
4. ACAAGASYAWPYCL [Peptide-99]  21 µM
5. SCAAGASYAWPYCA [Peptide-106]  76.4 µM

Molecular target: anti-CD28 Fab
Assay: competition ELISA, peptide titrated 0-100 uM against 1 nM anti-CD28 Fab, plate-bound CD28 as competitor

MDWCPRDLWVHCFA [Peptide-41] and ACDTYFAGMINECF [Peptide-79] cannot be ordered by IC50: over 100 µM for the first, over 100 µM for the second.

First: YCAGHSPINIGKCL [Peptide-84]
Second: WCWDYKLWVPMTCP [Peptide-85]
The IC50 of the first is lower: 26.8 µM for the first, over 100 µM for the second. The first is the more potent here.

YCAGHAWQYINKCL showed an IC50 of 13.8 µM.

Molecular target: T3, anti-CD28 scFv (disulfide)
T3 construct: also called Anti-CD28 scFv (VH - linker 1 - VL) Disulfide mutation: G44C, G235C
Assay: competition ELISA, peptide titrated 0-100 uM against 0.3 nM anti-CD28 scFv (disulfide), plate-bound CD28 as competitor

Compared with MDWCPRDLWVHCFA [Peptide-41], ACDTYFAGMINECF [Peptide-79] is higher in IC50: 61.5 µM for the first, over 100 µM for the second.

YCAGHSPINIGKCL [Peptide-84] and WCWDYKLWVPMTCP [Peptide-85] cannot be ordered by IC50: over 100 µM for the first, over 100 µM for the second.

Work on YCAGHAWQYINKCL yielded an IC50 of over 100 µM.

Molecular target: anti-CD28 Fab
Assay: competition ELISA, peptide titrated 0-100 uM against 1 nM anti-CD28 Fab, plate-bound CD28 as competitor
Remark: another data set of the same source

In the case of YCAGHAWQYINKCL, the IC50 is reported as 12.6 µM.

Molecular target: T4, PSMA Fab (SEQ ID NOs: 19, 20)
T4 construct: also called 006 PSMA Fab; anti-PSMA Fab
Assay: competition ELISA, peptide titrated against 0.3 nM PSMA Fab on captured biotinylated PSMA

YECHQGLFHRWCVN (cysteine pairing not given here; also: biotinylated (site not given here), PSMA peptide mask (P2)) [Peptide-158] was tested, and the IC50 was 17.3 µM.

Molecular target: T2, Anti-CD28 Fab (SEQ ID NOs: 696, 697)
Assay: phage binding ELISA on captured anti-CD28 Fab; wells pre-incubated with CD28 antigen as competitor

In order of falling “Phage binding ELISA, Anti-CD28 Fab signal in the presence of CD28” value:
1. YCDGHTWMYKQKCL [Phage-1333 (Peptide-87 library sequence, SEQ ID NO: 1649)]  0.08
2. YCAGHLDEYMEKCL [Phage-1332 (Peptide-87 library sequence, SEQ ID NO: 1648)]  0.07

Molecular target: anti-CD28 Fab
Assay: BLI (Octet): biotinylated peptide on streptavidin sensor, anti-CD28 Fab titrated in solution, 1:1 model

B1 showed a Kd of 2.02 µM.

Binder B1 has a koff of 0.0202 s⁻¹.

B1 gave a kon of 10000 M⁻¹ s⁻¹.

With B1 the “t1/2” value was 36 s.

Molecular target: anti-CD28 Fab
Assay: competition ELISA, peptide titrated 0-100 uM against 1 nM anti-CD28 Fab, plate-bound CD28 as competitor
Remark: another data set of the same source

With YCAGHAWQYINKCL the IC50 was 9.76 µM.

Molecular target: Ab-15
Assay: BLI (Octet): sensor loaded with 200 nM biotinylated peptide, 100 nM Ab-15

In order of rising “Octet signal (200 nM peptide)” value:
1. VPWCQIISGLECLT (cysteine pairing not given here; also: biotinylated, site not given here, CD28 peptide mask) [Peptide-73]  0.166
2. LDWCPRHLWALCFN (cysteine pairing not given here; also: biotinylated, site not given here, CD28 peptide mask) [Peptide-70]  0.697
3. IYWCPIDRWNDCYN (cysteine pairing not given here; also: biotinylated, site not given here, CD28 peptide mask) [Peptide-74]  0.705
4. IDWCPLHLWHECYH (cysteine pairing not given here; also: biotinylated, site not given here, CD28 peptide mask) [Peptide-72]  0.838

Molecular target: T5, anti-CD28 scFv
T5 construct: also called Anti-CD28 scFv (VH - linker 1 - VL)
Assay: BLI (Octet RED96): biotinylated peptide on streptavidin sensor, anti-CD28 scFv at 100-12.5 nM, 1:1 model

In order of rising Kd:
1. GYCHYWGDMVMWCG (cysteine pairing not given here; also: biotinylated, site not given here) [Peptide-12]  0.017 µM
2. MDWCPRERWVDCFF (cysteine pairing not given here; also: biotinylated, site not given here) [Peptide-9]  0.377 µM

In order of rising koff:
1. GYCHYWGDMVMWCG (cysteine pairing not given here; also: biotinylated, site not given here) [Peptide-12]  0.00167 s⁻¹
2. MDWCPRERWVDCFF (cysteine pairing not given here; also: biotinylated, site not given here) [Peptide-9]  0.0123 s⁻¹

In order of falling kon:
1. GYCHYWGDMVMWCG (cysteine pairing not given here; also: biotinylated, site not given here) [Peptide-12]  98700 M⁻¹ s⁻¹
2. MDWCPRERWVDCFF (cysteine pairing not given here; also: biotinylated, site not given here) [Peptide-9]  32500 M⁻¹ s⁻¹

Molecular target: T4, PSMA Fab (SEQ ID NOs: 19, 20)
Assay: competition ELISA, peptide titrated against 0.3 nM PSMA Fab on captured biotinylated PSMA
Remark: another data set of the same source

In order of falling IC50:
1. YECHQGLFHRWCVN (cysteine pairing not given here; also: biotinylated (site not given here), PSMA peptide mask (P2)) [Peptide-185]  23 µM
2. PELRCVPFWMCSFN (cysteine pairing not given here; also: biotinylated (site not given here), PSMA peptide mask (P2)) [Peptide-181]  11.2 µM
3. IECAYMTDQRFWCW (cysteine pairing not given here; also: biotinylated (site not given here), PSMA peptide mask (P2)) [Peptide-188]  7.22 µM
4. IAVLCQPNWMCAGF (cysteine pairing not given here; also: biotinylated (site not given here), PSMA peptide mask (P2)) [Peptide-180]  4.54 µM
5. LMKWCTPRWMCAAE (cysteine pairing not given here; also: biotinylated (site not given here), PSMA peptide mask (P2)) [Peptide-179]  4.44 µM

Molecular target: T6, anti-CD28 scFv (disulfide)
T6 construct: also called Anti-CD28 scFv (VH - linker 1 - VL) Disulfide mutation: G44C, G235C
Assay: competition ELISA: peptide titrated (0-100 µM) with 0.3 nM anti-CD28 scFv (disulfide), binding to plate-bound CD28

In order of falling IC50:
1. B6  76.4 µM
2. ACAAGASYAWPYCL [Peptide-99]  67 µM
3. SCAAGASYAWPACL [Peptide-105]  56.9 µM
4. SCAAGAAYAWPYCL [Peptide-101]  36.2 µM
5. B3  10.5 µM
6. B5  7.09 µM
7. B2  1.91 µM

For B1, the IC50 was 11 µM and 14.6 µM.

Molecular target: T4, PSMA Fab (SEQ ID NOs: 19, 20)
Assay: competition ELISA, peptide titrated against 0.3 nM PSMA Fab on captured biotinylated PSMA
Remark: another data set of the same source

In order of falling IC50:
1. PELRCVPFWMCSFN (cysteine pairing not given here; also: biotinylated (site not given here), PSMA peptide mask (P2)) [Peptide-181]  26.1 µM
2. LMKWCTPRWMCAAE (cysteine pairing not given here; also: biotinylated (site not given here), PSMA peptide mask (P2)) [Peptide-179]  4.6 µM
3. IAVLCQPNWMCAGF (cysteine pairing not given here; also: biotinylated (site not given here), PSMA peptide mask (P2)) [Peptide-180]  4.5 µM

Molecular target: T1, PSMA Fab
Assay: phage ELISA: biotinylated PSMA Fab on neutravidin plate, clonal phage supernatant, anti-M13 HRP; blocking buffer alone

In order of rising “phage binding ELISA signal” value:
1. APRMCSPPWMCYEL (peptide, not shown: large carriers, Clonal phage of the Peptide-180 library) [Phage-4013]  0.416
2. MRSVCVPSWMCSGF (peptide, not shown: large carriers, Clonal phage of the Peptide-180 library) [Phage-4012]  0.422
3. GWRQCEPVWMCSGF (peptide, not shown: large carriers, Clonal phage of the Peptide-180 library) [Phage-4011]  0.423
4. FEVRCVPTWMCAGQ (peptide, not shown: large carriers, Clonal phage of the Peptide-180 library) [Phage-4010]  0.427

Molecular target: Ab-15
Assay: competition ELISA: peptide titrated against 1 nM Ab-15; competitor plate-bound CD28

Compared with LDWCPRHLWALCFN (cysteine pairing not given here; also: biotinylated, site not given here, CD28 peptide mask) [Peptide-70], IDWCPLHLWHECYH (cysteine pairing not given here; also: biotinylated, site not given here, CD28 peptide mask) [Peptide-72] is 3.2-fold higher in IC50: 0.47 µM for the first, 1.52 µM for the second. The first is the more potent here.

Compared with VPWCQIISGLECLT (cysteine pairing not given here; also: biotinylated, site not given here, CD28 peptide mask) [Peptide-73], IYWCPIDRWNDCYN (cysteine pairing not given here; also: biotinylated, site not given here, CD28 peptide mask) [Peptide-74] is lower in IC50: over 100 µM for the first, 0.41 µM for the second.

Molecular target: Ab-15
Assay: binding ELISA: biotinylated peptide on neutravidin plate, Ab-15 titrated

In order of falling EC50:
1. VPWCQIISGLECLT (cysteine pairing not given here; also: biotinylated, site not given here, CD28 peptide mask) [Peptide-73]  0.0549 µM
2. IDWCPLHLWHECYH (cysteine pairing not given here; also: biotinylated, site not given here, CD28 peptide mask) [Peptide-72]  0.0133 µM
3. LDWCPRHLWALCFN (cysteine pairing not given here; also: biotinylated, site not given here, CD28 peptide mask) [Peptide-70]  0.0082 µM
4. IYWCPIDRWNDCYN (cysteine pairing not given here; also: biotinylated, site not given here, CD28 peptide mask) [Peptide-74]  0.0076 µM
